Measured values: patent publication US12319925B2, “Methods and compositions for genomic integration” (Myeloid Therapeutics, Inc., priority 2021, dated 2025)

System: HEK293T cells
Test: Expression of CD5 binder (ATAK) receptor and GFP by flow cytometry with labeled CD5 after LINE-1 plasmid transfection
Type: cell-based, human
Description: HEK 293 cells were transfected with a plasmid having the LINE-1 elements, with a 3 kb cargo sequence encoding recombinant receptor protein CD5-intron-fcr-PI3K (ATAK) that is interrupted by an intron sequence in the CD5 binding domain. The cargo is a chimeric receptor that has a CD5 binding extracellular domain, a FCRγ transmembrane domain, and an intracellular domain having a PI3-kinase recruitment domain. As in the design of the experiment above, the ATAK receptor cannot express unless it is integrated in the genome and the intron is spliced off. Following transfection in HEK293T cells, the receptor expression is detected using labeled CD5 as bait for the CD5 binding extracellular domain. Results shown in FIGS. 9B and 9C show successful integration and expression of the receptor. 36.5% cells were ATAK (CD5 binder) positive (FIG. 9C).
In a further modification, a LINE-1 construct (LINE-1plasmid-cd5_fcr-pi3k_t2a_GFPintron) with a longer 3.7 kb cargo sequence encoding a non-interrupted recombinant receptor protein CD5-intron-fcr-PI3K and an interrupted GFP sequence with a T2A sequence between receptor and the GFP sequences (FIG. 10A). […] Exemplary fluorescence identification of GFP and fluorescent tagged CD5 binding and gating quantitation for experimental runs are shown in FIG. 10C and FIG. 10D.
The cargo GFP gene in the previous construct was replaced with intron interrupted CD5-FcR-P13K CAR-M sequence (Morrissey et al., 2018). The CD5 binder expression was measured by flow cytometry using a Alexa647-conjugated CD5 protein such that retrotransposed cells are CD5-AF647 positive (red histogram) compared with a plasmid transfected negative control cell population (grey histogram) (FIG. 30).
The cargo gene length was extended by adding the intron-interrupted GFP gene after the T2A sequence downstream of the CD5-FcR-PI3K CAR-M sequence (FIG. 31). The CD5 binder expression was measured by flow cytometry using a Alexa647-conjugated CD5 protein. […]

Molecule | cells ATAK (CD5 binder) positive (HEK293T cells transfected with LINE-1 plasmid, 3 kb cargo, labeled CD5 as bait, FIG. 9C) [%] | cells express both CAR-M and GFP proteins (3.7 kb cargo, flow cytometry signal in Q2, Alexa647-conjugated CD5 protein, FIG. 31) [%] | increase of the ATAK receptor and GFP double-positive cells (3.7 kb cargo, normalized against mock-transfected cells, FIG. 10B)
CD5-intron-fcr-PI3K: LINE-1 plasmid with 3 kb cargo encoding intron-interrupted CD5 binding chimeric receptor (ATAK) (SEQ ID NO: 39) (nucleic acid) DNA: CGGCCGCGGGGGGAGGAGCCAAGATGGCCGAATAGGAACAGCTCCGGTCTACAGCTCCCAGCGTGAGCGACGCAGAAGACGGTGATTTCTGCATTTCCATCTGAGGTACCGGGTTCATCTCACTAGGGAGTGCCAGACAGTGGGCGCAGGCCAGTGTGTGTGCGCACCGTGCGCGAGCCGAAGCAGGGCGAGGCATTGCCTCACCTGGGAAGCGCAAGGGGTCAGGGAGTTCCCTTTCCGAGTCAAAGAAAGGGGTGACGGACGCACCTGGAAAATCGGGTCACTCCCACCCGAATATTGCGCTTTTCAGACCGGCTTAAGAAACGGCGCACCACGAGACTATATCCCACACCTGGCTCGGAGGGTCCTACGCCCACGGAATCTCGCTGATTGCTAGCACAGCAGTCTGAGATCAAACTGCAAGGCGGCAACGAGGCTGGGGGAGGGGCGCCCGCCATTGCCCAGGCTTGCTTAGGTAAACAAAGCAGCAGGGAAGCTCGAACTGGGTGGAGCCCACCACAGCTCAAGGAGGCCTGCCTGCCTCTGTAGGCTCCACCTCTGGGGGCAGGGCACAGACAAACAAAAAGACAGCAGTAACCTCTGCAGACTTAAGTGTCCCTGTCTGACAGCTTTGAAGAGAGCAGTGGTTCTCCCAGCACGCAGCTGGAGATCTGAGAACGGGCAGACTGCCTCCTCAAGTGGGTCCCTGACCCCTGACCCCCGAGCAGCCTAACTGGGAGGCACCCCCCAGCAGGGGCACACTGACACCTCACACGGCAGGGTATTCCAACAGACCTGCAGCTGAGGGTCCTGTCTGTTAGAAGGAAAACTAACAACCAGAAAGGACATCTACACCGAAAACCCATCTGTACATCACCATCATCAAAGACCAAAAGTAGATAAAACCACAAAGATGGGGAAAAAACAGAACAGAAAAACTGGAAACTCTAAAACGCAGAGCGCCTCTCCTCCTCCAAAGGAACGCAGTTCCTCACCAGCAACAGAACAAAGCTGGATGGAGAATGATTTTGATGAGCTGAGAGAAGAAGGCTTCAGACGATCAAATTACTCTGAGCTACGGGAGGACATTCAAACCAAAGGCAAAGAAGTTGAAAACTTTGAAAAAAATTTAGAAGAATGTATAACTAGAATAACCAATACAGAGAAGTGCTTAAAGGAGCTGATGGAGCTGAAAACCAAGGCTCGAGAACTACGTGAAGAATGCAGAAGCCTCAGGAGCCGATGCGATCAACTGGAAGAAAGGGTATCAGCAATGGAAGATGAAATGAATGAAATGAAGCGAGAAGGGAAGTTTAGAGAAAAAAGAATAAAAAGAAATGAGCAAAGCCTCCAAGAAATATGGGACTATGTGAAAAGACCAAATCTACGTCTGATTGGTGTACCTGAAAGTGATG | 36.5 |  | 
LINE-1plasmid-cd5_fcr-pi3k_t2a_GFPintron: LINE-1 plasmid with 3.7 kb cargo: CD5 binding receptor, T2A, intron-interrupted GFP (SEQ ID NO: 40) (nucleic acid) DNA: CGGCCGCGGGGGGAGGAGCCAAGATGGCCGAATAGGAACAGCTCCGGTCTACAGCTCCCAGCGTGAGCGACGCAGAAGACGGTGATTTCTGCATTTCCATCTGAGGTACCGGGTTCATCTCACTAGGGAGTGCCAGACAGTGGGCGCAGGCCAGTGTGTGTGCGCACCGTGCGCGAGCCGAAGCAGGGCGAGGCATTGCCTCACCTGGGAAGCGCAAGGGGTCAGGGAGTTCCCTTTCCGAGTCAAAGAAAGGGGTGACGGACGCACCTGGAAAATCGGGTCACTCCCACCCGAATATTGCGCTTTTCAGACCGGCTTAAGAAACGGCGCACCACGAGACTATATCCCACACCTGGCTCGGAGGGTCCTACGCCCACGGAATCTCGCTGATTGCTAGCACAGCAGTCTGAGATCAAACTGCAAGGCGGCAACGAGGCTGGGGGAGGGGCGCCCGCCATTGCCCAGGCTTGCTTAGGTAAACAAAGCAGCAGGGAAGCTCGAACTGGGTGGAGCCCACCACAGCTCAAGGAGGCCTGCCTGCCTCTGTAGGCTCCACCTCTGGGGGCAGGGCACAGACAAACAAAAAGACAGCAGTAACCTCTGCAGACTTAAGTGTCCCTGTCTGACAGCTTTGAAGAGAGCAGTGGTTCTCCCAGCACGCAGCTGGAGATCTGAGAACGGGCAGACTGCCTCCTCAAGTGGGTCCCTGACCCCTGACCCCCGAGCAGCCTAACTGGGAGGCACCCCCCAGCAGGGGCACACTGACACCTCACACGGCAGGGTATTCCAACAGACCTGCAGCTGAGGGTCCTGTCTGTTAGAAGGAAAACTAACAACCAGAAAGGACATCTACACCGAAAACCCATCTGTACATCACCATCATCAAAGACCAAAAGTAGATAAAACCACAAAGATGGGGAAAAAACAGAACAGAAAAACTGGAAACTCTAAAACGCAGAGCGCCTCTCCTCCTCCAAAGGAACGCAGTTCCTCACCAGCAACAGAACAAAGCTGGATGGAGAATGATTTTGATGAGCTGAGAGAAGAAGGCTTCAGACGATCAAATTACTCTGAGCTACGGGAGGACATTCAAACCAAAGGCAAAGAAGTTGAAAACTTTGAAAAAAATTTAGAAGAATGTATAACTAGAATAACCAATACAGAGAAGTGCTTAAAGGAGCTGATGGAGCTGAAAACCAAGGCTCGAGAACTACGTGAAGAATGCAGAAGCCTCAGGAGCCGATGCGATCAACTGGAAGAAAGGGTATCAGCAATGGAAGATGAAATGAATGAAATGAAGCGAGAAGGGAAGTTTAGAGAAAAAAGAATAAAAAGAAATGAGCAAAGCCTCCAAGAAATATGGGACTATGTGAAAAGACCAAATCTACGTCTGATTGGTGTACCTGA |  | 10.8 | greater than 10 fold
